We go through six molecules from PMC2887722 (Molecular cell, 2010).

To fix the notation:
T1: hRpn2 (797-953) (human, UniProt Q99460 797-953)
T1 sequence (looked up): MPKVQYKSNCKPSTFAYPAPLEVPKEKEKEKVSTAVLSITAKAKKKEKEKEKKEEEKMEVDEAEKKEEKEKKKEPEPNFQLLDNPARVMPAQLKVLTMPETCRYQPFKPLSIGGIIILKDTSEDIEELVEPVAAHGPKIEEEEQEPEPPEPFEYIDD

T2: His-tagged Uch37 (UniProt Q9Y5K5 1-329)
T2 sequence (looked up): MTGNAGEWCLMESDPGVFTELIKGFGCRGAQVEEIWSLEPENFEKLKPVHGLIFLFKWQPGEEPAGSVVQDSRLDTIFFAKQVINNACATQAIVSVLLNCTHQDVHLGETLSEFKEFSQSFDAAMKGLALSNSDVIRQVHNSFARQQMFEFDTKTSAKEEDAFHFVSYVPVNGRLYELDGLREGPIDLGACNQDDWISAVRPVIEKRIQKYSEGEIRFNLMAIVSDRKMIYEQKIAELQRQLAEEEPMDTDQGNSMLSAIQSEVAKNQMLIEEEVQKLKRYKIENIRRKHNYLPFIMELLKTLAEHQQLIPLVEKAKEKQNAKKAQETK

B1: hRpn13 (1-150) (domain or fragment, human, UniProt Q16186 1-150, looked up)
chain: MTTSGALFPSLVPGSRGASNKYLVEFRAGKMSLKGTTVTPDKRKGLVYIQQTDDSLIHFCWKDRTSGNVEDDLIIFPDDCEFKRVPQCPSGRVYVLKFKAGSKRLFFWMQEPKTDQDEEHCRKVNEYLNNPPMPGALGASGSSGHELSAL
B2: full length human Rpn13 (hRpn13) (natural protein, UniProt Q16186 1-407, looked up)
chain: MTTSGALFPSLVPGSRGASNKYLVEFRAGKMSLKGTTVTPDKRKGLVYIQQTDDSLIHFCWKDRTSGNVEDDLIIFPDDCEFKRVPQCPSGRVYVLKFKAGSKRLFFWMQEPKTDQDEEHCRKVNEYLNNPPMPGALGASGSSGHELSALGGEGGLQSLLGNMSHSQLMQLIGPAGLGGLGGLGALTGPGLASLLGSSGPPGSSSSSSSRSQSAAVTPSSTTSSTRATPAPSAPAAASATSPSPAPSSGNGASTAASPTQPIQLSDLQSILATMNVPAGPAGGQQVDLASVLTPEIMAPILANADVQERLLPYLPSGESLPQTADEIQNTLTSPQFQQALGMFSAALASGQLGPLMCQFGLPAEAVEAANKGDVEAFAKAMQNNAKPEQKEGDTKDKKDEEEDMSLD
B3: GST-tagged hRpn2 (797-953) (domain or fragment, human, UniProt Q99460 797-953, looked up)
chain: T1 sequence (looked up)
B4: hRpn13 (253-407) (domain or fragment, human, UniProt Q16186 253-407, looked up)
chain: STAASPTQPIQLSDLQSILATMNVPAGPAGGQQVDLASVLTPEIMAPILANADVQERLLPYLPSGESLPQTADEIQNTLTSPQFQQALGMFSAALASGQLGPLMCQFGLPAEAVEAANKGDVEAFAKAMQNNAKPEQKEGDTKDKKDEEEDMSLD
B5: GST-tagged hRpn13 (253-407) with alanine substitutions of Val286, Asp287, Glu295 and Ile296 (domain or fragment, human, UniProt Q16186 253-407, looked up)
chain: B4 chain with V34A, D35A, E43A, I44A
B6: GST-tagged hRpn13 (253-407) wild-type (domain or fragment, human, UniProt Q16186 253-407, looked up)
chain: B4 chain

Experiment [1] addresses T1, hRpn2 (797-953). The experiment can be described thus: NMR titration.
Experiment [2] deals with ubiquitin (UniProt P0CG48 1-76). Nature of the experiment: other fluorescence titration.
Experiment [3] deals with B2. The experiment can be described thus: pull-down.
The target of experiment [4] is T2, His-tagged Uch37. Nature of the experiment: NMR intermolecular NOEs.
In experiment [5] the target is T2, His-tagged Uch37. The experiment can be described thus: pull-down.

Residue numbers refer to the chain shown, from its start.

B1: in experiment [1], the binding result is reported as “binds”.
On to B2, for which, in experiment [2], the Kd came to 8 ± 0.5 µM.
B3: the binding result in experiment [3] is listed as “binds”.
With B4, the binding result in experiment [4] is listed as “binds”.
For B5, in experiment [5], the binding result is “binds”.
On to B6, for which the binding result in experiment [5] is reported as “binds”.

What is called Kd is the equilibrium constant for the complex coming apart. A lower Kd goes with higher affinity.
